This is an account of results in patent US12084522B2, “Peptides, combination of peptides, and cell based medicaments for use in immunotherapy against urinary bladder cancer and other cancers” (Immatics Biotechnologies GmbH, priority 2016, dated 2024).

The assay concerns the target HLA-A*02:01 (Homo sapiens, UniProt P04439, D140Y/D185E/D98H/E176V/E277Q/G131W/G231S/I119V/I121R/I166T/I218V/L300P/L318F/N151K/N90K/P208A/P217A/Q86G/Q94H/R138H/R169H/T345S). In words: MHC binding assay (UV-ligand exchange, β2m ELISA, peptide exchange yield). The note with it: binding to HLA-A*02:01 ranged by peptide exchange yield (UV-ligand exchange, β2m ELISA). The source says: Candidate peptides for T cell based therapies according to the present invention were further tested for their MHC binding capacity (affinity). The individual peptide-MHC complexes were produced by UV-ligand exchange, where a UV-sensitive peptide is cleaved upon UV-irradiation, and exchanged with the peptide of interest as analyzed. Only peptide candidates that can effectively bind and stabilize the peptide-receptive MHC molecules prevent dissociation of the MHC complexes. To determine the yield of the exchange reaction, an ELISA was performed based on the detection of the light chain (β2 m) of stabilized MHC complexes. The assay was performed as generally described in Rodenko et al. (Rodenko et al., 2006).
96 well MAXISorp plates (NUNC) were coated over night with 2 μg/ml streptavidin in PBS at room temperature, washed 4× and blocked forth at 37° C. in 2% BSA containing blocking buffer. Refolded HLA-A*02:01/MLA-001 monomers served as standards, covering the range of 15-500 ng/ml. Peptide-MHC monomers of the UV-exchange reaction were diluted 100 fold in blocking buffer. Samples were incubated for 1 h at 37° C., washed four times, incubated with 2 ug/ml HRP conjugated anti-β2 m for 1 h at 37° C., washed again and detected with TMB solution that is stopped with […]. Absorption was measured at 450 nm. Candidate peptides that show a high exchange yield (preferably higher than 50%, most preferred higher than 75%) are generally preferred for a generation and production of antibodies or fragments thereof, and/or T cell receptors or fragments thereof, as they show sufficient avidity to the MHC molecules and prevent dissociation of the MHC complexes.

Consider “107 (LTLAKLEKV; listed as Homo sapiens) [compound 107]”, for which the Peptide exchange entry is recorded as “++ (>20% = ++)”.
In the case of “11 (AMAELRVVV; listed as Homo sapiens) [compound 11]” it was “++++ (>75% = ++++)”; in that of “83 (VILDKYYFL; listed as Homo sapiens) [compound 83]”, “++++ (>75% = ++++)”; in that of “47 (VLMDDTDPL; listed as Homo sapiens) [compound 47]”, “+++ (>50 = +++)”.
On to “63 (LLAGLLVGV; listed as Homo sapiens) [compound 63]”, for which the Peptide exchange result was “+++ (>50 = +++)”.
In the case of “42 (FLIDASQRV; listed as Homo sapiens) [compound 42]” it was “+++ (>50 = +++)”; in that of “130 (TLTSKLYSL; listed as Homo sapiens) [compound 130]”, “++++ (>75% = ++++)”; in that of “141 (SMFGAGLTV; listed as Homo sapiens) [compound 141]”, “++++ (>75% = ++++)”.
In the case of “131 (ILTSIQSLL; listed as Homo sapiens) [compound 131]” it was “++++ (>75% = ++++)”.
As to “58 (GLDSSVNVQGSVL; listed as Homo sapiens) [compound 58]”, the Peptide exchange entry was “+++ (>50 = +++)”.
Turning to “76 (AVVSSVNTV; listed as Homo sapiens) [compound 76]”, the Peptide exchange result is reported as “+++ (>50 = +++)”.
In the case of “143 (TLVTGLASV; listed as Homo sapiens) [compound 143]” it was “+++ (>50 = +++)”; in that of “124 (QIDGTLSTI; listed as Homo sapiens) [compound 124]”, “+++ (>50 = +++)”.
In the case of “70 (KLAEISLGV; listed as Homo sapiens) [compound 70]” it was “++ (>20% = ++)”.
In the case of “33 (VLFGEITRL; listed as Homo sapiens) [compound 33]” it was “+++ (>50 = +++)”.
With “106 (ILLDTPLFL; listed as Homo sapiens) [compound 106]”, the Peptide exchange result is listed as “+++ (>50 = +++)”.
In the case of “25 (SLDSSGFSL; listed as Homo sapiens) [compound 25]” it was “+++ (>50 = +++)”; in that of “65 (IITDLLRSV; listed as Homo sapiens) [compound 65]”, “++++ (>75% = ++++)”.
In the case of “118 (RLLDFPTLLV; listed as Homo sapiens) [compound 118]” it was “+++ (>50 = +++)”; in that of “78 (FIPDFAVAI; listed as Homo sapiens) [compound 78]”, “++++ (>75% = ++++)”.
In the case of “86 (FLISLIISV; listed as Homo sapiens) [compound 86]” it was “+++ (>50 = +++)”.
“110 (VLFNIDGQGNHV; listed as Homo sapiens) [compound 110]”: the Peptide exchange result is recorded as “+++ (>50 = +++)”.
In the case of “112 (YLDPSLNSL; listed as Homo sapiens) [compound 112]” it was “+++ (>50 = +++)”; in that of “66 (SLWEENQAL; listed as Homo sapiens) [compound 66]”, “+++ (>50 = +++)”; in that of “116 (QLAWFDTDL; listed as Homo sapiens) [compound 116]”, “+++ (>50 = +++)”.
Consider “128 (KLWGQSIQL; listed as Homo sapiens) [compound 128]”, for which the Peptide exchange entry is “++++ (>75% = ++++)”.
In the case of “82 (NLHNSYYSV; listed as Homo sapiens) [compound 82]” it was “+++ (>50 = +++)”.
Regarding “81 (SLDKGTLYI; listed as Homo sapiens) [compound 81]”, the Peptide exchange result was “+++ (>50 = +++)”.
In the case of “79 (FLDPATPRV; listed as Homo sapiens) [compound 79]” it was “+++ (>50 = +++)”; in that of “35 (KLPEPPPLA; listed as Homo sapiens) [compound 35]”, “+++ (>50 = +++)”.
In the case of “96 (KLTNGIWVL; listed as Homo sapiens) [compound 96]” it was “+++ (>50 = +++)”; in that of “36 (ALWDEFNQL; listed as Homo sapiens) [compound 36]”, “+++ (>50 = +++)”; in that of “45 (IIDSSPTAL; listed as Homo sapiens) [compound 45]”, “++ (>20% = ++)”.
For “105 (TLFPSKIGV; listed as Homo sapiens) [compound 105]”, the Peptide exchange result is listed as “+++ (>50 = +++)”.
In the case of “28 (GLIDSLMAYV; listed as Homo sapiens) [compound 28]” it was “++++ (>75% = ++++)”; in that of “100 (SLQSFIHGV; listed as Homo sapiens) [compound 100]”, “+++ (>50 = +++)”.
Take “52 (SLATLEGIQL; listed as Homo sapiens) [compound 52]”: the Peptide exchange entry is recorded as “+++ (>50 = +++)”.
In the case of “20 (YLPDSLTQL; listed as Homo sapiens) [compound 20]” it was “++++ (>75% = ++++)”; in that of “91 (NLDAATYQV; listed as Homo sapiens) [compound 91]”, “+++ (>50 = +++)”.
In the case of “88 (ALASLENHV; listed as Homo sapiens) [compound 88]” it was “+++ (>50 = +++)”.
As for “129 (YLEPKLTQV; listed as Homo sapiens) [compound 129]”, the Peptide exchange entry is “+++ (>50 = +++)”.
In the case of “142 (FLGENISNFL; listed as Homo sapiens) [compound 142]” it was “+++ (>50 = +++)”.
Turning to “93 (LLDLIQTKV; listed as Homo sapiens) [compound 93]”, the Peptide exchange entry was “+++ (>50 = +++)”.
With “132 (YILEGEPGKV; listed as Homo sapiens) [compound 132]”, the Peptide exchange result is recorded as “++++ (>75% = ++++)”.
Turning to “55 (KLLETKWTL; listed as Homo sapiens) [compound 55]”, the Peptide exchange result is “++++ (>75% = ++++)”.
In the case of “40 (VIADRVVTV; listed as Homo sapiens) [compound 40]” it was “+++ (>50 = +++)”.
In the case of “133 (GLDPLGYEIQL; listed as Homo sapiens) [compound 133]” it was “++++ (>75% = ++++)”; in that of “87 (RLLELLQEA; listed as Homo sapiens) [compound 87]”, “++++ (>75% = ++++)”.
In the case of “117 (YMLDIFHEVL; listed as Homo sapiens) [compound 117]” it was “+++ (>50 = +++)”; in that of “1 (ILLQASVQV; listed as Homo sapiens) [compound 1]”, “++++ (>75% = ++++)”.
For the substance “49 (SLIGGTNFV; listed as Homo sapiens) [compound 49]”, the Peptide exchange entry is “+++ (>50 = +++)”.
Take “69 (QIWDKILSV; listed as Homo sapiens) [compound 69]”: the Peptide exchange result is listed as “+++ (>50 = +++)”.
In the case of “98 (YLIGLDPENLAL; listed as Homo sapiens) [compound 98]” it was “+++ (>50 = +++)”; in that of “84 (ALDPASISV; listed as Homo sapiens) [compound 84]”, “+++ (>50 = +++)”.
In the case of “71 (LLSEDFVSV; listed as Homo sapiens) [compound 71]” it was “++ (>20% = ++)”.
In the case of “18 (SIAAYNPVV; listed as Homo sapiens) [compound 18]”, the Peptide exchange entry was “++++ (>75% = ++++)”.
In the case of “67 (FLTPPLLSV; listed as Homo sapiens) [compound 67]” it was “++++ (>75% = ++++)”; in that of “109 (RLIDDMVAQA; listed as Homo sapiens) [compound 109]”, “+++ (>50 = +++)”.
With “2 (GLLKAYSIRTA; listed as Homo sapiens) [compound 2]”, the Peptide exchange result is given as “+++ (>50 = +++)”.
In the case of “120 (IIIPEIQKV; listed as Homo sapiens) [compound 120]” it was “+++ (>50 = +++)”.
In the case of “144 (YLAGEAPTL; listed as Homo sapiens) [compound 144]” it was “+++ (>50 = +++)”; in that of “48 (VLMDDTDPLV; listed as Homo sapiens) [compound 48]”, “+++ (>50 = +++)”; in that of “72 (SLFTGLRSI; listed as Homo sapiens) [compound 72]”, “+++ (>50 = +++)”.
In the case of “92 (ALLDEQQVNVLL; listed as Homo sapiens) [compound 92]” it was “+++ (>50 = +++)”.
As for “39 (AMASHLTST; listed as Homo sapiens) [compound 39]”, the Peptide exchange entry is given as “+++ (>50 = +++)”.
Regarding “123 (NLAGVYSEV; listed as Homo sapiens) [compound 123]”, the Peptide exchange entry is “++++ (>75% = ++++)”.
